These results are taken from patent US20140271661A1 (Bayer, published 2014).

For assay [1], the target named is T1, human antithrombin β complexed with heparin (human ATβH) (human, UniProt P01008 33-464, lacks glycosylation at Asn135 (β glyco-isoform); complexed with heparin).
T1 construct: mature; Heparin is a non-protein cofactor; also called hATβH; hATβ
Description: panning and screening of human antibody libraries against human ATβ in complex with heparin.

Assay [2] has as its target cynomolgus antithrombin (ATβH species homolog, in Cyno plasma) (Cyno). Description: cell-based or functional assay.
In assay [3] the target is rabbit antithrombin β complexed with heparin (rATβH) (rabbit). Description: cell-based or functional assay.
Assay [4] has as its target T1, human antithrombin β complexed with …. Kind of assay: cell-based or functional assay.

T1 sequence (P01008 33-464, one chain of several): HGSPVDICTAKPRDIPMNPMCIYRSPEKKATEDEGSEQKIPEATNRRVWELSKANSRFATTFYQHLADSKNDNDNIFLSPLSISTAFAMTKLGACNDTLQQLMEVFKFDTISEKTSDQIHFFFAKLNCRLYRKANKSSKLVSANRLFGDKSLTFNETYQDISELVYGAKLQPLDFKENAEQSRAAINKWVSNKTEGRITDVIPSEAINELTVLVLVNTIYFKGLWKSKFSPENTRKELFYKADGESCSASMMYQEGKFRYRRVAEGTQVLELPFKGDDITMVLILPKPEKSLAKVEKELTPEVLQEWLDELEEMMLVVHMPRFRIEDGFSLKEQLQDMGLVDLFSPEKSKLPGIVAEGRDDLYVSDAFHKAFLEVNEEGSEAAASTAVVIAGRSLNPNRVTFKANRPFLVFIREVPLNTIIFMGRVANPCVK

B1: TPP-2019 hIgG (antibody, V domains shown)
VH: EVQLLESGGGLVQPGGSLRLSCAASGFTFSRYAMYWVRQAPGKGLEWVSRISPSGGKTHYADSVKGRFTISRDNSKNTLYLQMNSLRAEDTAVYYCARLSQTGYYPHYHYYGMDVWGQGTTVTVSS
VL: DIQMTQSPATLSLSPGERATLSCRASQRVSSSYLTWYQQKPGQAPRLLIYGASSRATGIPDRFSGSGSGTDFTLTISRLEPEDFAVYYCQQYDSTPPLTFGGGTKVEIKR
With B1, the binding result in assay [1] is recorded as “binds”.

B2: TPP2009 hIgG1 (antibody, V domains shown)
VH: EVQLLESGGGLVQPGGSLRLSCAASGFTFSAYRMGWVRQAPGKGLEWVSRIYSSGGRTRYADSVKGRFTISRDNSKNTLYLQMNSLRAEDTAVYYCAREKASDLSGSFSEALDYWGQGTLVTVSS
VL: AQSVLTQDPAVSVALGQTVRITCQGDSLRSYYASWYQQKPGQAPVLVIYGKNNRPSGIPDRFSGSSSGNTASLTITGAQAEDEADYYCNSRDSSGNHLVFGGGTKLTVLG
B2: in assay [2], the “EC50, FXa-Activated Clotting Assay, cyno HEM A plasma” value came to 4.3 nM; the “EC50, FXa-Activated Clotting Assay, cyno normal plasma” value is 21.5 nM; the “EC50, dPT (diluted prothrombin time), cyno HEM A plasma” value was determined as 13.9 nM. Also, in assay [3], the “EC50, FXa-Activated Clotting Assay, rabbit HEM A plasma” value came out at 10.5 nM and the “EC50, FXa-Activated Clotting Assay, rabbit normal plasma” value came out at 25.7 nM. Further, in assay [4], the “EC50, FXa-Activated Clotting Assay, human HEM A plasma” value was 4.7 nM; the “EC50, FXa-Activated Clotting Assay, human normal plasma” value was determined as 10.5 nM; the “EC50, dPT (diluted prothrombin time), human HEM A plasma” value was found to be 9 nM.

B3: TPP-2016 hIgG (antibody, V domains shown)
VH: EVQLLESGGGLVQPGGSLRLSCAASGFTFSKYRMDWVRQAPGKGLEWVSRIGPSGGKTTYADSVKGRFTISRDNSKNTLYLQMNSLRAEDTAVYYCAREKTSDLSGSYSEALDYWGQGTLVTVSS
VL: DIQMTQSPATLSVSPGERATLSCRASQNINRNLAWYQQKPGRAPRLLIHTASTRAPGVPVRITGSGSGTEFTLTISSLEPEDFAVYFCQQYASPPRTFGQGTKVEIKR
As to B3, the binding result in assay [1] is listed as “binds”.

B4: TPP2803 IgG2, Germlined and converted to IgG2 (antibody, V domains shown)
VH: EVQLLESGGGLVQPGGSLRLSCAASGFTFSSYRMSWVRQAPGKGLEWVSRIYSSGGRTRYADSVKGRFTISRDNSKNTLYLQMNSLRAEDTAVYYCAREKASDLSGSFSEALDYWGQGTLVTVSS
VL: SSELTQDPAVSVALGQTVRITCQGDSLRSYYASWYQQKPGQAPVLVIYGKNNRPSGIPDRFSGSSSGNTASLTITGAQAEDEADYYCNSRDSSGNHLVFGGGTKLTVLG
Take B4: in assay [4], the “EC50, FXa-Activated Clotting Assay, human HEM A plasma” value was found to be 2.7 nM and the “EC50, FXa-Activated Clotting Assay, human normal plasma” value was determined as 2.4 nM.
